Test results reported in paper PMC8611094, “RNA G-quadruplex structures control ribosomal protein production”.

Target: DDX3X (UniProt O00571 1-662)
Experiment: ELISA; ELISA performed as in Zyner et al. (ref 43); buffer, salt, pH and temperature not given in the material
Settings: protein: commercial; tags: FLAG; label: 5' biotin; intramolecular G4

Sequence of DDX3X (O00571 whole entry): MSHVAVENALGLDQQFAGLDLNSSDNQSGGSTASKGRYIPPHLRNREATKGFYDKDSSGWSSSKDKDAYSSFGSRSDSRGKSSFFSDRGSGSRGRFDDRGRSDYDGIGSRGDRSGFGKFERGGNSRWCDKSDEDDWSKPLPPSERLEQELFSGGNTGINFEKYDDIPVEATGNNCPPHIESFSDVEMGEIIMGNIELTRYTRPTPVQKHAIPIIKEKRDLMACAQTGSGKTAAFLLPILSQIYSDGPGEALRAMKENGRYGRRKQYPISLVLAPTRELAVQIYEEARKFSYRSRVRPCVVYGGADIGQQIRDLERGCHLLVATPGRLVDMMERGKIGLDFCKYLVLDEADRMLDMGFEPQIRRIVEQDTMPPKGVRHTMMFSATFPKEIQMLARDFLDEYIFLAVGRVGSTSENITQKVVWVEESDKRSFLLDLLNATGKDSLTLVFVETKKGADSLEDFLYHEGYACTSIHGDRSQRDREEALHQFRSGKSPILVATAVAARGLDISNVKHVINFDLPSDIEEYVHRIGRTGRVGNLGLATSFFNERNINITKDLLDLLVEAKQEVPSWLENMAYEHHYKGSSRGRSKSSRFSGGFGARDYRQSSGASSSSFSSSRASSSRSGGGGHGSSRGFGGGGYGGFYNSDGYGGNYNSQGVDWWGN

Binder: UGUGGGAGGGGCGGGUCUGGGUGC (structured_RNA) [NRAS G4]
- Kd: 18 nM
